Laboratory results taken from patent US20100068218A1.

Assays:
HLA-A*2402 (human) = experiment: peptide-HLA binding inhibition assay
HLA-A*0101 (human) = experiment: peptide-HLA binding inhibition assay

| Binder | IC50 (HLA-A*2402 (human)) [nM] | IC50 (HLA-A*0101 (human)) [nM] |
| --- | --- | --- |
| RFSWLSLLVPF (modifications not checked) [HBV env 332 epitope …] | 12 | – |
| SFCGSPYSW (modifications not checked) [HBV pol 167 epitope …] | 146 | – |
| GYPALMPLY (modifications not checked) [HBV pol 639 epitope …] | 280 | – |
| LTFGRETVLEY (modifications not checked) [HBV core 137 epitope …] | – | 80 |
| YSLNFMGY (modifications not checked) [HBV pol 580 epitope YSLNFMGY] | – | 382 |
| LWFHISCLTF (modifications not checked) [HBV core 101 epitope …] | 6.7 | – |
